Data from US20220041711A1 (NGM BIOPHARMACEUTICALS, published 2022).
Changes are numbered by the printed parent chain.

T1: mouse LAIR-1 (form in the assay not stated) (mouse, UniProt Q8BG84 22-144, limits assumed)
T1 sequence: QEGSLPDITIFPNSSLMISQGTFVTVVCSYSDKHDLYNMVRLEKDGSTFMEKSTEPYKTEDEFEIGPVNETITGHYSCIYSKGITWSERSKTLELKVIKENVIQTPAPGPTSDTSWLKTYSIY

T2: human LAIR-1-Fc (human, UniProt Q6GTX8 22-165)
T2 construct: also called biotinylated human LAIR-1-Fc; not shown: a Fc region
T2 chain: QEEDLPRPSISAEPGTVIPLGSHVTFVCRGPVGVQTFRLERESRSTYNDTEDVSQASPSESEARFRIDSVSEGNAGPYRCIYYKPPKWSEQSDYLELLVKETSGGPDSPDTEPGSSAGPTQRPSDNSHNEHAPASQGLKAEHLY

T3: human LAIR-2 (form in the assay not stated) (human, UniProt Q6ISS4 22-152)
T3 sequence: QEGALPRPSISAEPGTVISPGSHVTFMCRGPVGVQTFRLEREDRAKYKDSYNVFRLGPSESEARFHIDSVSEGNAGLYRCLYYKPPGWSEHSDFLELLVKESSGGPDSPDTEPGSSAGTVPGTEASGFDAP

T4: cyno LAIR-1-ECD (cynomolgus monkey)
T4 construct: Recombinant, expressed in mammalian cells; also called extracellular region of cyno LAIR-1
T4 chain: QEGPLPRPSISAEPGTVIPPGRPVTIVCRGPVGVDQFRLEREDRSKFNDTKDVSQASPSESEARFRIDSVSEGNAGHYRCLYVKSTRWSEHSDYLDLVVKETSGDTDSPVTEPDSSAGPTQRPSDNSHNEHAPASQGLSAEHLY

T5: human LAIR-1-ECD (human, UniProt Q6GTX8 22-165)
T5 construct: Recombinant, expressed in mammalian cells; also called extracellular region of human LAIR-1
T5 chain: T2 chain

B1: anti-LAIR-1 antibody ch57D12 (antibody, V domains shown)
VH: QVQLQQSGAELARPGASVNLSCRASGYSFTSFGISWVKQRTGQGLEWIGEIYPRSDNTFYNEKFKGKATLTADKSSSTAYMELRSLTSEDSAVYFCARHFGSSSFDYWGQGTTLTVSS
VL: ENVLTQSPPIMAASLGQKVTMTCSASSSVSSIYFHWYQQKSGTSPKPLIHRASNLASGVPARFSGSGSGTSYSLTISSVEAEDDATYYCQQWSGYPLTFGGGTKLEIK
notes: The prefix 'ch' is not defined
B2: anti-LAIR-1 antibody 108D10 (antibody, V domains shown)
VH: EVQLVETGGGLVQPKGSLKLSCAASGFTFNINAMNWVRQAPGKGLEWVARIRTKNNNYATYYADSVKDRFTISRDDSESMLYLQMNNLKTEDTAMYYCVRDRYGGAMAYWGQGTSVTVSS
VL: DIQMTQSSSSFSVSLGDRVTITCKASEDIYNRLAWYQQKPGNVPRLLISSATSLETGVPSRFSGSGSGKDYTLSLTSLQSEDVATYYCQQYWTIPYTFGGGTKLEIK
notes: Monoclonal antibody from immunized mice (hybridoma)
B3: anti-LAIR-1 antibody 47A1 (antibody, V domains shown)
VH: EVQLVESGGGLVQPKGSLKLSCAASGFTFNTYAIHWVRQAPGKGLEWVARIRSKSTNYATYYADSVKDRFTISRDDSQSMVFLQMNNLKTEDTAMYYCVRENWYYYALDYWGQGTSVTVSS
VL: DIQMTQSPASLSASVGETVTITCRASGNIHNYLTWYQQKQGKSPQVLVYNAKTLEDGVPSRFSGSESGTQYSLKINSLQPEDFGSYYCQHFWSTPFTFGSGTKLEIK
notes: as for B2
B4: anti-LAIR-1 antibody 57D12 (antibody, V domains shown)
VH: B1 VH
VL: B1 VL
notes: as for B2
B5: anti-LAIR-1 antibody 61H4 (antibody, V domains shown)
VH: EVQLQQSGPEVLKPGASVKISCKASGYTFTDYYYMNWVKQSHGKSLEWIGYIYPNNGATSYNQKFKGKATLTVDKSSSTAYMELRSLTSEDSAVYYCARDGYSSNYYTMDYWGQGTSVTVSS
VL: DVQMIQSPSSLSASLGDIVTMTCQASQGTSINLNWFQQKPGKAPKLLIYGASNLEDGVPSRFSGSRYGTDFTLTISSLEDEDMATYFCLQHTYLPYTFGGGTKLEIK
notes: as for B2
B6: anti-LAIR-1 antibody 62G10 (antibody, V domains shown)
VH: EVQLVETGGGLVQPKGSLKLSCATSGFTFNINAMNWVRQAPGKGLEWVARIRTKNNNFATYYADSVKDRFTISRDDSQSMLYLQMNNLKTEDTAMYYCVRGPYFDYWGQGTTLTVSS
VL: DIQMTQSPASQSASLGESVTITCLASQTIGTWLAWYQQKPGKSPQLLIYAATSLADGVPSRFSGSGSGTKFSFKISNLQAEDFVTYYCQQLYSTPYTFGGGTKLEIK
notes: as for B2
B7: anti-LAIR-1 antibody 47H1 (antibody, V domains shown)
VH: EVQLVETGGGLVQPKGSLKLSCAASGFTFNINAMNWVRQAPGKGLEWVARIRTKNNNYATFYADSVKDRFTISRDDSQSMLYLQMNNLKTDDTAMYYCVRDRAGFFAYWGQGTPVTVSA
VL: B6 VL with A34G, Q37R, N77S, T85I, Y96L, G100S
notes: as for B2
B8: anti-LAIR-1 antibody ch108D10 (antibody, V domains shown)
VH: B2 VH
VL: B2 VL
B9: anti-LAIR-1 antibody ch47A1 (antibody, V domains shown)
VH: B3 VH
VL: B3 VL
B10: anti-LAIR-1 antibody ch61H4 (antibody, V domains shown)
VH: B5 VH
VL: B5 VL

Biological target: T6, human LAIR-1-CD3ζ chimeric receptor on NFAT-GFP reporter cells (human, UniProt P20963 31-164, limits assumed)
Experiment: cell-based or functional assay
Target sequence in this assay (P20963 other isoform, or with tags, fused parts or gaps mutant limits assumed): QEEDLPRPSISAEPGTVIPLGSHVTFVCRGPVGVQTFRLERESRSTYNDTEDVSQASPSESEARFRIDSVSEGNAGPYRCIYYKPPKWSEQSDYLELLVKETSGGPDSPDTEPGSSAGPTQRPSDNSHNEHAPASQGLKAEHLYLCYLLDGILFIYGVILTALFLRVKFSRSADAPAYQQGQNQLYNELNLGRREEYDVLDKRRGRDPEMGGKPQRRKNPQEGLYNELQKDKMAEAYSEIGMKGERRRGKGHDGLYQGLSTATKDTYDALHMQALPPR

Row | IC50 (read off the curve): % GFP+ human LAIR-1 reporter cells on coated MARCO-his | IC50 (read off the curve): % GFP+ human LAIR-1 reporter cells on coated collagen 1 | IC50 (read off the curve): % GFP+ human LAIR-1 reporter cells on coated collagen 4 | Binder
1 | ~0.3 nM | ~0.3 nM | ~0.2 nM | B1

Biological target: T7, cyno LAIR-1-CD3ζ chimeric receptor on NFAT-GFP reporter cells (cynomolgus monkey; human)
Experiment: cell-based or functional assay
Target sequence in this assay (P20963 other isoform, or with tags, fused parts or gaps mutant limits assumed): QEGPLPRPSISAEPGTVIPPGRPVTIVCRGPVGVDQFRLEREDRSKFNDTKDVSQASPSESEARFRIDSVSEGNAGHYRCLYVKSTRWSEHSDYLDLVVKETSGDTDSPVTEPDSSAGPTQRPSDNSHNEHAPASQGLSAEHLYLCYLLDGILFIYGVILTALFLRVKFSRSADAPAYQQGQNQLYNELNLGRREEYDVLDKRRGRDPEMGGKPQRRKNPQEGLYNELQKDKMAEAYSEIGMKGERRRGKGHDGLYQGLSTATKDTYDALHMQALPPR

Row | IC50 (read off the curve): % GFP+ cyno LAIR-1 reporter cells on coated MARCO-his | IC50 (read off the curve): % GFP+ cyno LAIR-1 reporter cells on coated collagen 1 | IC50 (read off the curve): % GFP+ cyno LAIR-1 reporter cells on coated collagen 4 | Binder
2 | ~1 nM | ~2 nM | ~0.8 nM | B1

Biological target: T1, mouse LAIR-1 (form in the assay not …)
Experiment: not described

Row | binding result | Binder
3 | no binding | B2
4 | no binding | B3
5 | no binding | B4
6 | no binding | B5
7 | no binding | B6
8 | no binding | B7

Biological target: T2, human LAIR-1-Fc
Experiment: ELISA blocking: plate coated with 5 µg/mL human collagen type 1, antibody titrated, 1 µg/mL biotinylated human LAIR-1-Fc, streptavidin-HRP, OD650

Row | IC50 (read off the curve) | Binder
9 | ~5 nM | B1

Biological target: T3, human LAIR-2 (form in the assay not …)
Experiment: ELISA and FACS screening

Row | binding result | Binder
10 | no binding | B2
11 | no binding | B3
12 | no binding | B4
13 | no binding | B5
14 | no binding | B6
15 | no binding | B7

Biological target: T6, human LAIR-1-CD3ζ chimeric receptor on …
Experiment: cell-based or functional assay
Remark: another data set of the same source

Row | IC50 (read off the curve): % GFP+ human LAIR-1 reporter cells on coated C1 complex | IC50 (read off the curve): % GFP+ human LAIR-1 reporter cells on coated COLEC12 | IC50 (read off the curve): % GFP+ human LAIR-1 reporter cells on coated MARCO-his | IC50 (read off the curve): % GFP+ human LAIR-1 reporter cells on coated MBL | IC50 (read off the curve): % GFP+ human LAIR-1 reporter cells on coated SP-D | IC50 (read off the curve): % GFP+ human LAIR-1 reporter cells on coated collagen 1 | IC50 (read off the curve): % GFP+ human LAIR-1 reporter cells on coated collagen 4 | Binder
16 | ~0.01 nM | ~0.03 nM | ~0.03 nM | ~0.04 nM | ~0.02 nM | ~0.03 nM | ~0.02 nM | B8
17 | ~0.02 nM | ~0.1 nM | ~0.06 nM | ~0.2 nM | ~0.05 nM | ~0.05 nM | ~0.04 nM | B9

Biological target: T4, cyno LAIR-1-ECD
Experiment: SPR (Biacore); antibody captured by anti-Fc; LAIR-1-ECD injected;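 also: Anti-Fc immobilized on a CM5 chip, LAIR-1-ECD (human or cynomolgus) injected at 3.3-10 nM and 25 °C, kinetics fitted by simultaneous global fit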

Row | Kd | koff | kon | Binder
18 | 21 nM | 0.0039 s⁻¹ | 190000 M⁻¹ s⁻¹ | B2
19 | 18 nM | 0.0057 s⁻¹ | 320000 M⁻¹ s⁻¹ | B3
20 | 7.3 nM | 0.00078 s⁻¹ | 110000 M⁻¹ s⁻¹ | B4
21 | 9.6 nM | 0.00077 s⁻¹ | 80000 M⁻¹ s⁻¹ | B5
22 | 5.1 nM | 0.001 s⁻¹ | 200000 M⁻¹ s⁻¹ | B6
23 | 2.5 nM | 0.00044 s⁻¹ | 180000 M⁻¹ s⁻¹ | B7

Biological target: T5, human LAIR-1-ECD
Experiment: as above

Row | Kd | koff | kon | Binder
24 | 0.4 nM | 0.00043 s⁻¹ | 1.1e+06 M⁻¹ s⁻¹ | B2
25 | 0.92 nM | 0.00055 s⁻¹ | 590000 M⁻¹ s⁻¹ | B3
26 | 0.27 nM | 4.5e-05 s⁻¹ | 170000 M⁻¹ s⁻¹ | B4
27 | 0.46 nM | 4.9e-05 s⁻¹ | 110000 M⁻¹ s⁻¹ | B5
28 | 0.32 nM | 0.00018 s⁻¹ | 550000 M⁻¹ s⁻¹ | B6
29 | 0.087 nM | 0.0001 s⁻¹ | 1.2e+06 M⁻¹ s⁻¹ | B7

Biological target: T6, human LAIR-1-CD3ζ chimeric receptor on …
Experiment: cell-based or functional assay
Remark: another data set of the same source

Row | IC50 (read off the curve): % GFP+ human LAIR-1 reporter cells on polymerized collagen matrix | Binder
30 | ~0.3 nM | B1

Biological target: T7, cyno LAIR-1-CD3ζ chimeric receptor on …
Experiment: cell-based or functional assay
Remark: another data set of the same source

Row | IC50 (read off the curve): % GFP+ cyno LAIR-1 reporter cells on polymerized collagen matrix | Binder
31 | ~1 nM | B1

Biological target: T6, human LAIR-1-CD3ζ chimeric receptor on …
Experiment: cell-based or functional assay
Remark: another data set of the same source

Row | IC50 (read off the curve): % GFP+ human LAIR-1 reporter cells on coated MARCO-his | IC50 (read off the curve): % GFP+ human LAIR-1 reporter cells on coated collagen 1 | IC50 (read off the curve): % GFP+ human LAIR-1 reporter cells on coated collagen 4 | Binder
32 | ~0.01 nM | ~0.05 nM | ~0.04 nM | B8
33 | ~0.04 nM | ~0.1 nM | ~0.08 nM | B9
34 | ~0.2 nM | ~0.7 nM | ~0.4 nM | B1
35 | ~0.8 nM | ~2 nM | ~1 nM | B10
